Literature values in article PMC8296306.
pKd: −log10 of the molar value.

Columns and labels:
Cxcl1/KC (Mus musculus) = Cxcl1/KC (Mus musculus) (UniProt P12850)
[1] = molecular target: Cxcl2/MIP2 (Mus musculus) (UniProt P10889)

Cxcl1/KC (from UniProt P12850)
pKd (Cxcl1/KC (Mus musculus)): 4.46

Cxcl2/MIP2 (from UniProt P10889)
pKd [1]: 4.82
